Tests used:
[1] = target: Recombinant human FGFR4-Fc (R&D Systems Cat # 685-FR) (human) (UniProt P22455); experiment: competition ELISA: FGFR4-Fc preincubated with soluble FGF2, binding to immobilized FGF2-heparin
[2] = target: Recombinant human FGFR4-Fc (R&D Systems Cat # 685-FR) (human) (UniProt P22455); experiment: competition ELISA: FGFR4-Fc preincubated with soluble FGF1, binding to immobilized FGF2-heparin

Row | IC50 [1] [pM] | IC50 [2] [pM] | Substance
1 | 691 |  | recombinant human FGF2 (R&D Systems, Cat# 233-FB) (from UniProt P09038 143-288) (ligand)
2 |  | 733 | FGF1 (soluble) (from UniProt P05230 16-155) (ligand)

Reference: patent US20110212091A1
